Test results taken from PMC6058786 (Haematologica, 2018).

Assays:
purified Pin1 WW-domain [1] = molecular target: T1, purified Pin1 WW-domain (UniProt Q13526 5-39); test: ITC
purified Pin1 WW-domain [2] = molecular target: T1, purified Pin1 WW-domain; test: NMR titration
purified Pin1 WW-domain [3] = molecular target: T1, purified Pin1 WW-domain; test: ITC; remark: listed apart in the source

T1 sequence (Q13526 5-39): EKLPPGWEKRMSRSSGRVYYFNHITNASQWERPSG

Question: For HKCRKAGVGQSWKENSPLNVS [unphosphorylated TFCD (ITC)], which Kd (purified Pin1 WW-domain [1]) is on record?
Answer: Its Kd is 1530 µM.

Question: HKCRKAGVGQSWKENSPLNVS (not fully specified; phosphoserine at 253; phosphoserine at 258) [double phosphorylated pSer253/pSer258 TFCD peptide] was tested. Which Kd (purified Pin1 WW-domain [2]) did it give?
Answer: The Kd was 133 ± 13 µM.

Question: Which Kd (purified Pin1 WW-domain [3]) does the source give for HKCRKAGVGQSWKENSPLNVS (not fully specified; phosphoserine at 258) [Ser258-phosphorylated TFCD-encoding peptide (ITC)] here?
Answer: Its Kd is about 137 µM.
